Assay results published in PMC2626280.
Where two headings read alike, the source gives them in different places.

Legend:
[1] = target: actin (Oryctolagus cuniculus) (UniProt P68135); details: cited from earlier work
[2] = target: actin (Oryctolagus cuniculus) (UniProt P68135); details: cited from earlier work; remark: listed apart in the source
[3] = target: purified skeletal muscle actin (rabbit) (UniProt P68135); test: inhibition of actin polymerization (ultracentrifugation assay); apparent; skeletal muscle actin (18 µM) with increasing GST-RPEL (350–422 aa); 100 mM KCl, 2 mM MgCl2, 10 mM Tris-HCl pH 7.8, 20°C 60 min (legend: room temperature 30 minutes); 130,000 g 15 min; fraction of depolymerized actin by densitometry, nonlinear regression
[4] = target: actin (Oryctolagus cuniculus) (UniProt P68135); details: cited from earlier work; remark: listed apart in the source

Substance: MAL RPEL3 (from UniProt Q8K4J6)
- Kd [1]: 18.8 µM

Substance: MAL RPEL1 (from UniProt Q8K4J6)
- Kd [2]: 5.4 µM

Substance: GST-RPEL construct of scapinin, 350–422 aa (domain or fragment)
- Kd [3]: 0.018 µM
- stoichiometry N [3]: 1.21

Substance: MAL RPEL2 (from UniProt Q8K4J6)
- Kd [4]: 2.3 µM
